Reference: patent US20060172367

T1: fructosyl valine-histidine
T1 chain: VH

T2: fructosyl valine-leucine
T2 chain: VL

T3: fructosyl valine-histidine-leucine
T3 chain: VHL

T4: fructosyl valine-leucine-serine
T4 chain: VLS

B1: fructosylamine oxidase FAO-Q2 from Fusarium proliferatum GL2-1 strain (protein)
chain: MARTVAPLNKDSGILIVGGGTWGCSTALHLARRGYTNVTVLDVNRIPSPISAGHDVNKLSNRLGTSDSKGDDEDSIWKALTYAAAQGWLHDPIFQPFCHNTGAVMAGSTPKSIKQLVEDEIGDDIDQYTPLNTAEDFRRTMPERILTGDFLGWKGFYKPRGSGWVHARKAMKAAFEESQRLGVKFITGSPEGKVESLVFEAGDVKGAKTADGKEHRADRTILSAGASAEFSLDFENQIRPTAWTLGHIQMTAEETKLYKELPPLFNINQGFFMEPDEDLHQLKMCDEHPGYCNWVDKPGSKYPQSIPFAKYQVPIEAERRMKQFLKDIMPQLADRPLVHARICWCADTQDRMFLITYHPRHPSLVIASGDCGTGYKHITSIGKFISDCMEGTLEERFAKFWRWRPEKFTEFWGKDPLDRFGADDKIMDLPKSDAEGWTDIQNDK
B2: fructosylamine oxidase FAO-Q1 from Fusarium proliferatum GL2-1 strain (protein)
chain: MAGPPSSILIVGSGVFGLGTAWALAKRSHFSNTSITVVDDCAGQFPPEDAASVDSSRIVRADYSDPYYAALAAEAQKEWRKQGDHEVGGQGRYSESGFVLCASETPEDFKLKKSGMDYTKESAKNVELIAKETGLPVDKIQKLESTKALQEFLGTDGYPGDWGYLNGNSGWADAGEGMKWLYKQAQATGRIHFVNGKVTELVTEGDRVIGAKLSDSKILKADVVMVAAGAWSGSLVDLRGRTEATGHAVAYMDITPEEQKRLDNFPVVLNLSTGLFLIPPRNNVLKAARHTFGYINPVKINNALPPSPNDKREPFIASQPYTSRNDSSNPLTVEADKDLRRALTDLCPIRGLETRPWKEARICWYSDTRDGEWLIDYHPGWKGLFVATGDSGHGFKFLPNLGEKIVDVMQGQGGKLGEKWRWKEIQNDGVGRETNGVYTGLVTEDGSRGGRPLVLCDELEKGRALIGNTKAKL

Key:
[1] = target: T1, fructosyl valine-histidine
[2] = target: T2, fructosyl valine-leucine
[3] = target: T3, fructosyl valine-histidine-leucine
[4] = target: T4, fructosyl valine-leucine-serine

Row | Protein | Relative activity (%) [1] [%] | Relative activity (%) [2] [%] | Relative activity (%) [3] [%] | Relative activity (%) [4] [%]
1 | B1 | 2.4 | 0.6 | 0.6 | 3.3
2 | B2 |  | 1.1 |  | 
